Ends that are not written are not given here.

In the assay the target is T1, peptide antigen EDGIKRIQDDC-biotin (from AT1-receptor N-terminal region) (rat (sequence also found in human and …)).
T1 construct: Coated on Maxisorp plates for the ELISA; also called antigenic peptide; biotinylated peptide antigen
T1 peptide: EDGIKRIQDDC-biotin
The experiment in a line: ELISA, coated EDGIKRIQDDC-biotin, anti-His-tag HRP detection; reference is the murine scFv. On the procedure: IgM for comparative binding studies was purified as previously described for cellular invasion studies. The extinction coefficient used for IgM was 1.18 (Johnstone A, Thorpe R. *Immunochemistry in practice*. 2nd ed. Oxford: Blackwell Scientific Publications (1987)). Testing of Antigen Binding Using ELISA Enzyme-linked immunosorbant assays (ELISAs) were carried out in Maxisorp 96-well plates coated with Peptide antigen […]-biotin (SEQ ID NO: 14) (2-8 ug/ml in carbonate buffer pH 9.6) overnight at 4 or 37 C. The coated wells were blocked using 1% alkaline soluble casein (Blocking buffer) for 1 h at RT, then washed three times with PBS containing 0.1% v/v Tween 20. ScFv samples diluted between 1:1 to 1:100 in PBS-T were added and incubated for 1 h at RT before washing as before. A secondary HRP-conjugated anti-His-Tag antibody was then added (diluted 1:1000 in blocking buffer) for 1 h at RT. Wells were then washed three times in PBS-T then twice with PBS (without Tween 20). 100 µl of TMB substrate solution was added and colour was allowed to develop for 30 min, at which time 100 µl of 2M sulphuric acid was added to stop the reaction. Absorbance at 450 nm was read on a plate reading spectrophotometer. Protein concentrations were determined using an Eppendorf Biophotometer reading at 280 nm and using an extinction coefficient for the scFv of 1.7 as above.
(An ELISA detects its analyte on a solid surface through an enzyme-linked reagent.)

B1: humanised scFv variant HuCY, His-tagged (scFv, V domains shown)
VH: QVQLVQSGPELVKPGASVKISCKASGYSFTGYNMNWVKQAPGKSLEWIGNIDPYYGGTTYNQKFKGKATLTVDKSSSTAYMQLKSLRSEDTAVYYCAREVDYWGQGTTVTVSS
notes: Resurfaced variant of 12D, changed only in the framework regions; not shown: C-terminal His-tag from the expression vector
Take B1: the “fold binding in ELISA against the murine scFv” value was determined as 5 fold.

(Values after patent US9422369 (QUEEN MARY AND WESTFIELD COLLEGE, dated 2016).)
